Assay results from PMC10268231 (Nature, 2021).
One block for each binder: values may come before it.

B3: PRIM1 (natural protein, human)
chain: ETFDPTELPELLKLYYRRLFPYSQYYRWLNYGGVIKNYFQHREFSFTLKDDIYIRYQSFNNQSDLEKEMQKMNPYKIDIGAVYSHRPNQHNTVKLGAFQAQEKELVFDIDMTDYDDVRRCCSSADICPKCWTLMTMAIRIIDRALKEDFGFKHRLWVYSGRRGVHCWVCDESVRKLSSAVRSGIVEYLSLVKGGQDVKKKVHLSEKIHPFIRKSINIIKKYFEEYALVNQDILENKESWDKILALVPETIHDELQQSFQKSHNSLQRWEHLKKVASRYQNNIKNDKYGPWLEWEIMLQYCFPRLDINVSKGINHLLKSPFSVHPKTGRISVPIDLQKVDQFDPFTVPTISFICRELDAISTNEEEKEENEAESDVKHRTRDYKKTSLAPYVKVFEHFLENLDKSRKGELLKKSDLQKDF

Experiments:
Assay in all cases: cryo-EM structure
[1] = molecular target: B3
[2] = molecular target: T1, POLA1 (human, UniProt P09884 1-1462)
T1 sequence (looked up): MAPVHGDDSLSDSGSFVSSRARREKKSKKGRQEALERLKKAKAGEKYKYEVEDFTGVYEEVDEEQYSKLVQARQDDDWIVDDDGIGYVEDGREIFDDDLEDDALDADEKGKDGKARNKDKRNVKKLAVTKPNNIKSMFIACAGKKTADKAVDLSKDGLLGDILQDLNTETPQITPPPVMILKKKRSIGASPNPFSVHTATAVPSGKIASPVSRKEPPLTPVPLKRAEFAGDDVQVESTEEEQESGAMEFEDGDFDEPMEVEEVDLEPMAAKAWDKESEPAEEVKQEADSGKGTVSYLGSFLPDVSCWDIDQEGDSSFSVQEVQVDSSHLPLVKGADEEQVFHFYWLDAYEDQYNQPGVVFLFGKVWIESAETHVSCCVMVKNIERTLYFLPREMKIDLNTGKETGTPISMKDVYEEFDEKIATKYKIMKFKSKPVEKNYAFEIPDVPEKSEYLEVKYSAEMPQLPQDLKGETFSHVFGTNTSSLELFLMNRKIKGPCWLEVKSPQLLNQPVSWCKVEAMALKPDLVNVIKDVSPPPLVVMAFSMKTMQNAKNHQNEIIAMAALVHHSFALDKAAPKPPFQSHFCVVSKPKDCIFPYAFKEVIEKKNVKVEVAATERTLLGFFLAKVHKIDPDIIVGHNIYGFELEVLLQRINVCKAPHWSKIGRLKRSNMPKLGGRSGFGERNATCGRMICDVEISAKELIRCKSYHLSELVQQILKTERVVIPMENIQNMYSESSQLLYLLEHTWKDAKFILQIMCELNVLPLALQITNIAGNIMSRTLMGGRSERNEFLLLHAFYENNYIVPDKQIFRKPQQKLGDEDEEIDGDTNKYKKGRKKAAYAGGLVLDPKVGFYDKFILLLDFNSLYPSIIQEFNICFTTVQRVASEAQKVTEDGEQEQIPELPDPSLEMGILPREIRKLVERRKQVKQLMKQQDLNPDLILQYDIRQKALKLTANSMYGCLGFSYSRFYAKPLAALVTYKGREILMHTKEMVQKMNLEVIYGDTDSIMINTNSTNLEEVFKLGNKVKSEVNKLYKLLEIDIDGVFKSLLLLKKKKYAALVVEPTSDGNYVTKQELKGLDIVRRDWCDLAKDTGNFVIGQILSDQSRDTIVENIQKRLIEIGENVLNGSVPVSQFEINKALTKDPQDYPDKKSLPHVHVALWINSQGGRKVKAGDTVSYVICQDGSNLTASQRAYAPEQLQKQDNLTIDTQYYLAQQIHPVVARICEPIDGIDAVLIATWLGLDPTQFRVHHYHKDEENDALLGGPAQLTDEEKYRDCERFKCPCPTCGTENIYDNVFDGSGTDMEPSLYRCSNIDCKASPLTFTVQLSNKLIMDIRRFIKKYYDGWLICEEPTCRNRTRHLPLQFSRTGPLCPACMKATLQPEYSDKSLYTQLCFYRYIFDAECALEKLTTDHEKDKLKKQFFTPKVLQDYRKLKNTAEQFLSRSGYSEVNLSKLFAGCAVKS

[3] = molecular target: T2, PRIM2 (human, UniProt P49643-1 1-509)
T2 sequence (looked up): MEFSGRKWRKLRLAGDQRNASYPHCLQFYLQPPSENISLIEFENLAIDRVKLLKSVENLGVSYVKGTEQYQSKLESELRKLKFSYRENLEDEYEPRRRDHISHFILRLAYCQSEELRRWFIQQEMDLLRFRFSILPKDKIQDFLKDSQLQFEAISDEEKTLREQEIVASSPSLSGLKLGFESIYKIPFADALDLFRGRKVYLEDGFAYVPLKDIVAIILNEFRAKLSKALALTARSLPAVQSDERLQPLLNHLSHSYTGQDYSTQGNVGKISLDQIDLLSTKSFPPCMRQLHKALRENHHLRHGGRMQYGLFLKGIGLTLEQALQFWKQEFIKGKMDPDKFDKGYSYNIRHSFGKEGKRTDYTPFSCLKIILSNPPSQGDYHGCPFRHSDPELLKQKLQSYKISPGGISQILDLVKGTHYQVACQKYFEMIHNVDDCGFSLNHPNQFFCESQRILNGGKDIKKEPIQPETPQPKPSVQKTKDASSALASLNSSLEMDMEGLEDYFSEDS

binding result [1]: binds
B1: STN1 (natural protein, human)
chain: QPGSSRCEEETPSLLWGLDPVFLAFAKLYIRDILDMKESRQVPGVFLYNGHPIKQVDVLGTVIGVRERDAFYSYGVDDSTGVINCICWKKLNTESVSAAPSAARELSLTSQLKKLQETIEQKTKIEIGDTIRVRGSIRTYREEREIHATTYYKVDDPVWNIQIARMLELPTIYRKVYDQPFHSSALEKEEALSNPGALDLPSLTSLLSEKAKEFLMENRVQSFYQQELEMVESLLSLANQPVIHSASSDQVNFKKDTTSKAIHSIFKNAIQLLQEKGLVFQKDDGFDNLYYVTREDKDLHRKIHRIIQQDCQKPNHMEKGCHFLHILACARLSIRPGLSEAVLQQVLELLEDQSDIVSTMEHYYTAF

binding result [2]: binds
B2: CTC1 (natural protein, human, UniProt Q2NKJ3 1-1217, looked up)
chain: MAAGRAQVPSSEQAWLEDAQVFIQKTLCPAVKEPNVQLTPLVIDCVKTVWLSQGRNQGSTLPLSYSFVSVQDLKTHQRLPCCSHLSWSSSAYQAWAQEAGPNGNPLPREQLLLLGTLTDLSADLEQECRNGSLYVRDNTGVLSCELIDLDLSWLGHLFLFPRWSYLPPARWNSSGEGHLELWDAPVPVFPLTISPGPVTPIPVLYPESASCLLRLRNKLRGVQRNLAGSLVRLSALVKSKQKAYFILSLGRSHPAVTHVSIIVQVPAQLVWHRALRPGTAYVLTELRVSKIRGQRQHVWMTSQSSRLLLLKPECVQELELELEGPLLEADPKPLPMPSNSEDKKDPESLVRYSRLLSYSGAVTGVLNEPAGLYELDGQLGLCLAYQQFRGLRRVMRPGVCLQLQDVHLLQSVGGGTRRPVLAPCLRGAVLLQSFSRQKPGAHSSRQAYGASLYEQLVWERQLGLPLYLWATKALEELACKLCPHVLRHHQFLQHSSPGSPSLGLQLLAPTLDLLAPPGSPVRNAHNEILEEPHHCPLQKYTRLQTPSSFPTLATLKEEGQRKAWASFDPKALLPLPEASYLPSCQLNRRLAWSWLCLLPSAFCPAQVLLGVLVASSHKGCLQLRDQSGSLPCLLLAKHSQPLSDPRLIGCLVRAERFQLIVERDVRSSFPSWKELSMPGFIQKQQARVYVQFFLADALILPVPRPCLHSATPSTPQTDPTGPEGPHLGQSRLFLLCHKEALMKRNFCVPPGASPEVPKPALSFYVLGSWLGGTQRKEGTGWGLPEPQGNDDNDQKVHLIFFGSSVRWFEFLHPGQVYRLIAPGPATPMLFEKDGSSCISRRPLELAGCASCLTVQDNWTLELESSQDIQDVLDANKSLPESSLTDLLSDNFTDSLVSFSAEILSRTLCEPLVASLWMKLGNTGAMRRCVKLTVALETAECEFPPHLDVYIEDPHLPPSLGLLPGARVHFSQLEKRVSRSHNVYCCFRSSTYVQVLSFPPETTISIPLPHIYLAELLQGGQSPFQATASCHIVSVFSLQLFWVCAYCTSICRQGKCTRLGSTCPTQTAISQAIIRLLVEDGTAEAVVTCRNHHVAAALGLCPREWASLLDFVQVPGRVVLQFAGPGAQLESSARVDEPMTMFLWTLCTSPSVLRPIVLSFELERKPSKIVPLEPPRLQRFQCGELPFLTHVNPRLRLSCLSIRESEYSSSLGILASSC

Binder: B3
binding result [3]: binds
